{"source": "the supplement of paper PMC7125110", "parents": {"B1": {"name": "glmS ribozyme (parent)", "chain": "AUAAAAGCGCCAGAACUACAGAAAUGUAGUUGACGAGGAGGAGGUUUAUCGAAUUUUCGGCGGAUGCCUCCAAA"}}, "note": "± gives the standard error. Variants at the floor of the assay were thinned out."}
{"variants_of": "B1", "assay": "self-cleavage kobs at 2500 uM GlcN6P; higher = faster cleavage; RNA array", "settings": "with glucosamine-6-phosphate", "outline": "(§1)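 Glucosamine-6-phosphate, from 40 μM to 10 mM in HEPES/KCl/Mg(OAc)2 buffer, was flowed over sequenced MiSeq chips carrying barcoded ribozyme variants transcribed in situ by E. coli RNA polymerase. A hybridised Cy3 probe tracked the variants at 37 °C as tiles were imaged over ~14 h. kobs, kcat and KM were obtained by fitting normalised per-tile medians to exponential decays and then applying weighted Michaelis–Menten fits across concentrations.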", "units": {"self-cleavage kobs at 2500 uM GlcN6P": "s⁻¹"}}
{"variant": "A42G G44A G51U", "self-cleavage kobs at 2500 uM GlcN6P": "< 1e-05"}
{"variant": "U47C A52U A64G", "self-cleavage kobs at 2500 uM GlcN6P": "3.84e-05 ± 1.6e-05"}
{"variant": "G35U G41U G62A", "self-cleavage kobs at 2500 uM GlcN6P": "< 1e-05"}
{"variant": "G40U G51U G59A", "self-cleavage kobs at 2500 uM GlcN6P": "< 1e-05"}
{"variant": "A39U A48G C71U", "self-cleavage kobs at 2500 uM GlcN6P": "4.36e-05 ± 1.5e-05"}
{"variant": "G40U C58A G60U", "self-cleavage kobs at 2500 uM GlcN6P": "< 1e-05"}
{"variant": "U45C C61U C70G", "self-cleavage kobs at 2500 uM GlcN6P": "< 1e-05"}
{"variant": "G37U A48C A53G", "self-cleavage kobs at 2500 uM GlcN6P": "< 1e-05"}
{"variant": "C50U A53U G62C", "self-cleavage kobs at 2500 uM GlcN6P": "< 1e-05"}
{"variant": "G41U U54A U55A U56A C67U", "self-cleavage kobs at 2500 uM GlcN6P": "< 1e-05"}
{"variant": "G37U G44C U57C C67A", "self-cleavage kobs at 2500 uM GlcN6P": "< 1e-05"}
{"variant": "G38C G41C C61A C71G", "self-cleavage kobs at 2500 uM GlcN6P": "< 1e-05"}
{"variant": "A36U U46A U56G", "self-cleavage kobs at 2500 uM GlcN6P": "< 1e-05"}
{"variant": "G40A C61G G66C C67A", "self-cleavage kobs at 2500 uM GlcN6P": "< 1e-05"}
{"variant": "A36G A39U G62U", "self-cleavage kobs at 2500 uM GlcN6P": "< 1e-05"}
{"variant": "G41U U45C U56G", "self-cleavage kobs at 2500 uM GlcN6P": "7.1e-05 ± 3.2e-05"}
{"variant": "G41U A42C C61A", "self-cleavage kobs at 2500 uM GlcN6P": "< 1e-05"}
{"variant": "U49C U56G G66C", "self-cleavage kobs at 2500 uM GlcN6P": "< 1e-05"}
{"variant": "G37U G41U U47G G63U", "self-cleavage kobs at 2500 uM GlcN6P": "< 1e-05"}
{"variant": "U47A U57C", "self-cleavage kobs at 2500 uM GlcN6P": "0.000104 ± 2.6e-05"}
{"variant": "G35U U57A U69A", "self-cleavage kobs at 2500 uM GlcN6P": "< 1e-05"}
{"variant": "C61U G63C C71U", "self-cleavage kobs at 2500 uM GlcN6P": "< 1e-05"}
{"variant": "G37U A52U C71U", "self-cleavage kobs at 2500 uM GlcN6P": "< 1e-05"}
{"variant": "C34G G41U A42U", "self-cleavage kobs at 2500 uM GlcN6P": "< 1e-05"}
{"variant": "G40U U54G C70G C71A", "self-cleavage kobs at 2500 uM GlcN6P": "6.39e-05 ± 1.8e-05"}
{"variant": "A36C G44A C70A", "self-cleavage kobs at 2500 uM GlcN6P": "< 1e-05"}
{"variant": "A36G G40U U45C C67U", "self-cleavage kobs at 2500 uM GlcN6P": "< 1e-05"}
{"variant": "U47A G62C C68G C71G", "self-cleavage kobs at 2500 uM GlcN6P": "0.000178 ± 4.9e-05"}
{"variant": "U45G A64U C68U", "self-cleavage kobs at 2500 uM GlcN6P": "< 1e-05"}
{"variant": "C34U C58U G60A", "self-cleavage kobs at 2500 uM GlcN6P": "< 1e-05"}
{"variant": "U45A G51U U54G G63C", "self-cleavage kobs at 2500 uM GlcN6P": "< 1e-05"}
{"variant": "C34A A39U C50A A53G C68U", "self-cleavage kobs at 2500 uM GlcN6P": "< 1e-05"}
{"variant": "A36C A42U G63C", "self-cleavage kobs at 2500 uM GlcN6P": "< 1e-05"}
{"variant": "G38U A42U U49A", "self-cleavage kobs at 2500 uM GlcN6P": "< 1e-05"}
{"variant": "U46A U49A G63C C67G", "self-cleavage kobs at 2500 uM GlcN6P": "< 1e-05"}
{"variant": "U46C G66A C70U", "self-cleavage kobs at 2500 uM GlcN6P": "0.00157 ± 0.00039"}
{"variant": "U55G U65C", "self-cleavage kobs at 2500 uM GlcN6P": "0.000396 ± 8.6e-05"}
{"variant": "U47G C50G", "self-cleavage kobs at 2500 uM GlcN6P": "4.35e-05 ± 1.2e-05"}
{"variant": "A53U U56G U65G", "self-cleavage kobs at 2500 uM GlcN6P": "0.000913 ± 0.00018"}
{"variant": "U46A C58A C61U", "self-cleavage kobs at 2500 uM GlcN6P": "< 1e-05"}
{"variant": "G38A A42G C68G", "self-cleavage kobs at 2500 uM GlcN6P": "< 1e-05"}
{"variant": "G37A A39C G63U", "self-cleavage kobs at 2500 uM GlcN6P": "< 1e-05"}
{"variant": "G38A C58A C70G", "self-cleavage kobs at 2500 uM GlcN6P": "6.46e-05 ± 1.7e-05"}
{"variant": "G38A A53G G63U", "self-cleavage kobs at 2500 uM GlcN6P": "< 1e-05"}
{"variant": "C58G G59C C61A G62A C71A", "self-cleavage kobs at 2500 uM GlcN6P": "< 1e-05"}
{"variant": "A52G U54C C70U C71G", "self-cleavage kobs at 2500 uM GlcN6P": "7e-05 ± 2.3e-05"}
{"variant": "U45G U49A U55C", "self-cleavage kobs at 2500 uM GlcN6P": "< 1e-05"}
{"variant": "C34G G37C G60U G63C", "self-cleavage kobs at 2500 uM GlcN6P": "< 1e-05"}
{"variant": "A36C A42C U54C", "self-cleavage kobs at 2500 uM GlcN6P": "< 1e-05"}
{"variant": "U56G G60A U65G", "self-cleavage kobs at 2500 uM GlcN6P": "< 1e-05"}
{"variant": "A36C G40U U55A U56G C70G", "self-cleavage kobs at 2500 uM GlcN6P": "< 1e-05"}
{"variant": "A39C C67G C70A", "self-cleavage kobs at 2500 uM GlcN6P": "< 1e-05"}
{"variant": "A53G U55G G66U", "self-cleavage kobs at 2500 uM GlcN6P": "0.00112 ± 0.00027"}
{"variant": "G43C U46G C58A", "self-cleavage kobs at 2500 uM GlcN6P": "< 1e-05"}
{"variant": "U46A A52G G62U C70U", "self-cleavage kobs at 2500 uM GlcN6P": "< 1e-05"}
{"variant": "C50G C68G C70U", "self-cleavage kobs at 2500 uM GlcN6P": "7.27e-05 ± 1.1e-05"}
{"variant": "G37A G38C A42C", "self-cleavage kobs at 2500 uM GlcN6P": "< 1e-05"}
{"variant": "G35C A53U G60U C61U", "self-cleavage kobs at 2500 uM GlcN6P": "< 1e-05"}
{"variant": "A36U G40U G62C G66C", "self-cleavage kobs at 2500 uM GlcN6P": "< 1e-05"}
{"variant": "C34U G44U U49A", "self-cleavage kobs at 2500 uM GlcN6P": "< 1e-05"}
{"variant": "C34U C67G C68G", "self-cleavage kobs at 2500 uM GlcN6P": "0.000147 ± 3.9e-05"}
{"variant": "G41U A42C C70U", "self-cleavage kobs at 2500 uM GlcN6P": "0.000121 ± 2.6e-05"}
{"variant": "C50G G60U C61G U65A", "self-cleavage kobs at 2500 uM GlcN6P": "9.15e-05 ± 3e-05"}
{"variant": "G35C U46A C67G", "self-cleavage kobs at 2500 uM GlcN6P": "< 1e-05"}
{"variant": "A42U G44U U65C", "self-cleavage kobs at 2500 uM GlcN6P": "< 1e-05"}
{"variant": "A53C U57G C67U", "self-cleavage kobs at 2500 uM GlcN6P": "8.03e-05 ± 2.5e-05"}
{"variant": "A53G U57A C68A", "self-cleavage kobs at 2500 uM GlcN6P": "4.93e-05 ± 2.2e-05"}
{"variant": "U46G G63U C70A", "self-cleavage kobs at 2500 uM GlcN6P": "< 1e-05"}
{"variant": "A42U G59U C70G", "self-cleavage kobs at 2500 uM GlcN6P": "< 1e-05"}
{"variant": "U45A U47G U54G U56C", "self-cleavage kobs at 2500 uM GlcN6P": "0.00285 ± 0.00062"}
{"variant": "G63C G66C C67G", "self-cleavage kobs at 2500 uM GlcN6P": "< 1e-05"}
{"variant": "G35C G38C A48U", "self-cleavage kobs at 2500 uM GlcN6P": "< 1e-05"}
{"variant": "G38A C50G U57C", "self-cleavage kobs at 2500 uM GlcN6P": "0.000163 ± 6.6e-05"}
{"variant": "A39G G44U A53G", "self-cleavage kobs at 2500 uM GlcN6P": "0.000722 ± 0.00021"}
{"variant": "A53G U56C G60U G62A", "self-cleavage kobs at 2500 uM GlcN6P": "< 1e-05"}
{"variant": "G37A A53U G66U", "self-cleavage kobs at 2500 uM GlcN6P": "8.93e-05 ± 3.4e-05"}
{"variant": "G62C A64G C70A", "self-cleavage kobs at 2500 uM GlcN6P": "< 1e-05"}
{"variant": "G37U G38U A39C", "self-cleavage kobs at 2500 uM GlcN6P": "< 1e-05"}
{"variant": "G38A A42C U56G", "self-cleavage kobs at 2500 uM GlcN6P": "< 1e-05"}
{"variant": "G40C C70G C71U", "self-cleavage kobs at 2500 uM GlcN6P": "7.87e-05 ± 1.6e-05"}
{"variant": "A48G C50A U69G", "self-cleavage kobs at 2500 uM GlcN6P": "0.000106 ± 3e-05"}
{"variants_of": "B1", "assay": "self-cleavage kobs at 10000 uM GlcN6P; higher = faster cleavage; RNA array", "settings": "with glucosamine-6-phosphate", "outline": "as §1", "units": {"self-cleavage kobs at 10000 uM GlcN6P": "s⁻¹"}}
{"variant": "A42G G44A G51U", "self-cleavage kobs at 10000 uM GlcN6P": "< 1e-05"}
{"variant": "G35U G41U G62A", "self-cleavage kobs at 10000 uM GlcN6P": "< 1e-05"}
{"variant": "A1U U2G A3G A5U G44A", "self-cleavage kobs at 10000 uM GlcN6P": "4.04e-05 ± 1.7e-05"}
{"variant": "U47A U57C", "self-cleavage kobs at 10000 uM GlcN6P": "0.000159 ± 2.5e-05"}
{"variant": "U55G U65C", "self-cleavage kobs at 10000 uM GlcN6P": "0.000628 ± 0.00013"}
{"variant": "A53G U55G G66U", "self-cleavage kobs at 10000 uM GlcN6P": "0.00144 ± 0.00029"}
{"variant": "A39G G44U A53G", "self-cleavage kobs at 10000 uM GlcN6P": "0.000935 ± 0.00017"}
